8 molecules from patent publication US20240034774A1 (Gilead, published 2024) can be followed below.

One test addresses BSA (UniProt P02769 25-607). In words: single-point ELISA, BSA control.
In another test the target is gp120 Bal (HIV (Bal)). In words: single-point ELISA at EC50 conc. of A-1. Background: ELISA stands for enzyme-linked immunosorbent assay.
A further test has as its target gp120 SHIV SF162 P3 (SHIV SF162 P3). The test is described as follows: single-point ELISA at EC50 conc. of A-1.
The target of the next test is gp120 CAAN (HIV (CAAN)). The test is described as follows: single-point ELISA at EC50 conc. of A-1.

B1: 1.34.34-1 (antibody, human IgG1, kappa)
heavy: QVQLVQSGAEVKKPGASVRVSCKASGYNIRDYFIHWWRQAPGQGLQWVGWINPKTGQPNNPRQFQGRVTLTRHASWDFDTFSFYMDLKALRSDDTAVYFCARQRTDYWDFDVWGSGTQVTVSSASTKGPSVFPLAPSSKSTSGGTAALGCLVKDYFPEPVTVSWNSGALTSGVHTFPAVLQSSGLYSLSSVVTVPSSSLGTQTYICNVNHKPSNTKVDKKVEPKSCDKTHTCPPCPAPELLAGPDVFLFPPKPKDTLMISRTPEVTCVVVDVSHEDPEVKFNWYVDGVEVHNAKTKPREEQYNSTYRVVSVLTVLHQDWLNGKEYKCKVSNKALPLPEEKTISKAKGQPREPQVYTLPPSREEMTKNQVSLTCLVKGFYPSDIAVEWESNGQPENNYKTTPPVLDSDGSFFLYSKLTVDKSRWQQGNVFSCSVLHEALHSHYTQKSLSLSPGK
light: DIQMTQSPSSLSASVGDTVTITCQANGYLNWYQQRRGKAPKLLIYDGSNLERGVPSRFSGRRWGQEYTLTISSLQPEDIATYFCQVYEFVTPGTRLDIKRTVAAPSVFIFPPSDEQLKSGTASVVCLLNNFYPREAKVQWKVDNALQSGNSQESVTEQDSKDSTYSLSSTLTLSKADYEKHKVYACEVTHQGLSSPVTKSFNRGEC
For B1, the “ELISA A450” value in the test with BSA is 0.06 A450; with gp120 Bal, 0.89 A450; with gp120 SHIV SF162 P3, 0.7 A450; with gp120 CAAN, 0.88 A450.

B2: 1.22.1-1 (antibody, human IgG1, kappa)
heavy: QVQLLQSGAAVTKPGASVRVSCEASGYNIRDYFIHWWRQAPGQGLQWVGWINPKTGQPNNPRQFQGRVSLTRHASTFSFYMDLKALRSDDTAVYFCARQRSDYWDFDVWGSGTQVTVSSASTKGPSVFPLAPSSKSTSGGTAALGCLVKDYFPEPVTVSWNSGALTSGVHTFPAVLQSSGLYSLSSVVTVPSSSLGTQTYICNVNHKPSNTKVDKKVEPKSCDKTHTCPPCPAPELLAGPDVFLFPPKPKDTLMISRTPEVTCVVVDVSHEDPEVKFNWYVDGVEVHNAKTKPREEQYNSTYRVVSVLTVLHQDWLNGKEYKCKVSNKALPLPEEKTISKAKGQPREPQVYTLPPSREEMTKNQVSLTCLVKGFYPSDIAVEWESNGQPENNYKTTPPVLDSDGSFFLYSKLTVDKSRWQQGNVFSCSVLHEALHSHYTQKSLSLSPGK
light: DIQMTQSPSSLSASVGDTVTITCQANGYLNWYQQRRGKAPKLLIYDGSKLERGVPSRFSGRRWGQEYNLTINNLQPEDIATYFCQVYEFVVPGTRLDLKRTVAAPSVFIFPPSDEQLKSGTASVVCLLNNFYPREAKVQWKVDNALQSGNSQESVTEQDSKDSTYSLSSTLTLSKADYEKHKVYACEVTHQGLSSPVTKSFNRGEC
Regarding B2, the “ELISA A450” value with BSA was 0.06 A450; with gp120 Bal it was 1.03 A450; with gp120 SHIV SF162 P3, 0.78 A450; with gp120 CAAN it was 0.87 A450.

B3: 1.2.2-1 (antibody, human IgG1)
heavy: QVQLLQSGAEVKKPGASVRVSCEASGYNIRDYFIHWWRQAPGQGLQWVGWINPKTGQPNNPRQFQGRVSLTRHASWDFDTFSFYMDLKALRSDDTAVYFCARQRSDYWDFDVWGSGTMVTVSSASTKGPSVFPLAPSSKSTSGGTAALGCLVKDYFPEPVTVSWNSGALTSGVHTFPAVLQSSGLYSLSSVVTVPSSSLGTQTYICNVNHKPSNTKVDKKVEPKSCDKTHTCPPCPAPELLAGPDVFLFPPKPKDTLMISRTPEVTCVVVDVSHEDPEVKFNWYVDGVEVHNAKTKPREEQYNSTYRVVSVLTVLHQDWLNGKEYKCKVSNKALPLPEEKTISKAKGQPREPQVYTLPPSREEMTKNQVSLTCLVKGFYPSDIAVEWESNGQPENNYKTTPPVLDSDGSFFLYSKLTVDKSRWQQGNVFSCSVLHEALHSHYTQKSLSLSPGK
VL: DIQMTQSPSSLSASVGDTVTITCQANGYLNWYQQKPGKAPKLLIYDGSKLERGVPSRFSGRRWGQEYNLTINNLQPEDIATYFCQVYEFVVPGTKVDIK
On to B3, for which the “ELISA A450” value turned out to be 0.06 A450 with BSA, 0.91 A450 with gp120 Bal, 0.97 A450 in the test with gp120 SHIV SF162 P3 and 0.8 A450 with gp120 CAAN.

B4: 1.35.31-1 (antibody, human IgG1, kappa)
heavy: QVQLVQSGAEVKKPGASVRVSCKASGYNIRDYFMHWWRQAPGQGLQWVGWINPKTGQPNNPRQFQGRVTMTRHASWDFDTFSFYMDLSRLRSDDTATYFCARQRTDYWDFDVWGQGTMVTVSSASTKGPSVFPLAPSSKSTSGGTAALGCLVKDYFPEPVTVSWNSGALTSGVHTFPAVLQSSGLYSLSSVVTVPSSSLGTQTYICNVNHKPSNTKVDKKVEPKSCDKTHTCPPCPAPELLAGPDVFLFPPKPKDTLMISRTPEVTCVVVDVSHEDPEVKFNWYVDGVEVHNAKTKPREEQYNSTYRVVSVLTVLHQDWLNGKEYKCKVSNKALPLPEEKTISKAKGQPREPQVYTLPPSREEMTKNQVSLTCLVKGFYPSDIAVEWESNGQPENNYKTTPPVLDSDGSFFLYSKLTVDKSRWQQGNVFSCSVLHEALHSHYTQKSLSLSPGK
light: DIQMTQSPSSLSASVGDTVTITCQANGYLNWYQQRRGKAPKLLIYDGSKLERGVPSRFSGRRWGQEYTLTISSLQPEDIATYFCQVYEFVVPGTNLDLKRTVAAPSVFIFPPSDEQLKSGTASVVCLLNNFYPREAKVQWKVDNALQSGNSQESVTEQDSKDSTYSLSSTLTLSKADYEKHKVYACEVTHQGLSSPVTKSFNRGEC
In the case of B4, the “ELISA A450” value with BSA worked out at 0.07 A450; in the test with gp120 Bal, 1.05 A450; with gp120 SHIV SF162 P3 it was 0.68 A450; with gp120 CAAN it was 0.99 A450.

B5: 1.35.32-1 (antibody, human IgG1, kappa)
heavy: QVQLVQSGAEVKKPGASVRVSCKASGYNIRDYFMHWWRQAPGQGLQWVGWINPKTGQPNNPRQFQGRVTMTRHASWDFDTFSFYMDLSRLRSDDTATYFCARQRTDYWDFDVWGQGTMVTVSSASTKGPSVFPLAPSSKSTSGGTAALGCLVKDYFPEPVTVSWNSGALTSGVHTFPAVLQSSGLYSLSSVVTVPSSSLGTQTYICNVNHKPSNTKVDKKVEPKSCDKTHTCPPCPAPELLAGPDVFLFPPKPKDTLMISRTPEVTCVVVDVSHEDPEVKFNWYVDGVEVHNAKTKPREEQYNSTYRVVSVLTVLHQDWLNGKEYKCKVSNKALPLPEEKTISKAKGQPREPQVYTLPPSREEMTKNQVSLTCLVKGFYPSDIAVEWESNGQPENNYKTTPPVLDSDGSFFLYSKLTVDKSRWQQGNVFSCSVLHEALHSHYTQKSLSLSPGK
light: DIQMTQSPSSLSASVGDTVTITCQANGYLNWYQQRRGKAPKLLIYDGSKLERGVPSRFSGRRWGQEYTLTISSLQPEDIATYFCQVYEFVTPGTRLDLKRTVAAPSVFIFPPSDEQLKSGTASVVCLLNNFYPREAKVQWKVDNALQSGNSQESVTEQDSKDSTYSLSSTLTLSKADYEKHKVYACEVTHQGLSSPVTKSFNRGEC
Turning to B5, the “ELISA A450” value with BSA was found to be 0.06 A450; with gp120 Bal, 0.96 A450; with gp120 SHIV SF162 P3 it was 0.58 A450; with gp120 CAAN, 1.01 A450.

B6: 1.35.1-1 (antibody, human IgG1, kappa)
heavy: QVQLVQSGAEVKKPGASVRVSCKASGYNIRDYFMHWWRQAPGQGLQWVGWINPKTGQPNNPRQFQGRVTMTRHASWDFDTFSFYMDLSRLRSDDTATYFCARQRTDYWDFDVWGQGTMVTVSSASTKGPSVFPLAPSSKSTSGGTAALGCLVKDYFPEPVTVSWNSGALTSGVHTFPAVLQSSGLYSLSSVVTVPSSSLGTQTYICNVNHKPSNTKVDKKVEPKSCDKTHTCPPCPAPELLAGPDVFLFPPKPKDTLMISRTPEVTCVVVDVSHEDPEVKFNWYVDGVEVHNAKTKPREEQYNSTYRVVSVLTVLHQDWLNGKEYKCKVSNKALPLPEEKTISKAKGQPREPQVYTLPPSREEMTKNQVSLTCLVKGFYPSDIAVEWESNGQPENNYKTTPPVLDSDGSFFLYSKLTVDKSRWQQGNVFSCSVLHEALHSHYTQKSLSLSPGK
light: DIQMTQSPSSLSASVGDTVTITCQANGYLNWYQQRRGKAPKLLIYDGSKLERGVPSRFSGRRWGQEYNLTINNLQPEDIATYFCQVYEFVVPGTRLDLKRTVAAPSVFIFPPSDEQLKSGTASVVCLLNNFYPREAKVQWKVDNALQSGNSQESVTEQDSKDSTYSLSSTLTLSKADYEKHKVYACEVTHQGLSSPVTKSFNRGEC
For B6, the “ELISA A450” value with BSA was 0.07 A450; with gp120 Bal it was 0.84 A450; with gp120 SHIV SF162 P3 it was 0.8 A450; with gp120 CAAN, 0.87 A450.

B7: 1.1.2-1 (antibody, human IgG1)
heavy: QVQLLQSGAAVTKPGASVRVSCEASGYNIRDYFIHWWRQAPGQGLQWVGWINPKTGQPNNPRQFQGRVSLTRHASWDFDTFSFYMDLKALRSDDTAVYFCARQRSDYWDFDVWGSGTQVTVSSASTKGPSVFPLAPSSKSTSGGTAALGCLVKDYFPEPVTVSWNSGALTSGVHTFPAVLQSSGLYSLSSVVTVPSSSLGTQTYICNVNHKPSNTKVDKKVEPKSCDKTHTCPPCPAPELLAGPDVFLFPPKPKDTLMISRTPEVTCVVVDVSHEDPEVKFNWYVDGVEVHNAKTKPREEQYNSTYRVVSVLTVLHQDWLNGKEYKCKVSNKALPLPEEKTISKAKGQPREPQVYTLPPSREEMTKNQVSLTCLVKGFYPSDIAVEWESNGQPENNYKTTPPVLDSDGSFFLYSKLTVDKSRWQQGNVFSCSVLHEALHSHYTQKSLSLSPGK
VL: DIQMTQSPSSLSASVGDTVTITCQANGYLNWYQQKPGKAPKLLIYDGSKLERGVPSRFSGRRWGQEYNLTINNLQPEDIATYFCQVYEFVVPGTKVDIK
Consider B7, for which the “ELISA A450” value came to 0.06 A450 in the test with BSA, 0.95 A450 with gp120 Bal, 1.01 A450 in the test with gp120 SHIV SF162 P3 and 0.93 A450 with gp120 CAAN.

B8: 1v2-1 (antibody, human IgG1, kappa)
heavy: QVQLLQSGAAVTKPGASVRVSCEASGYNIRDYFIHWWRQAPGQGLQWVGWINPKTGQPNNPRQFQGRVSLTRHASWDFDTYSFYMDLKALRSDDTAVYFCARQRSDYWDFDVWGSGTQVTVSSASTKGPSVFPLAPSSKSTSGGTAALGCLVKDYFPEPVTVSWNSGALTSGVHTFPAVLQSSGLYSLSSVVTVPSSSLGTQTYICNVNHKPSNTKVDKKVEPKSCDKTHTCPPCPAPELLAGPDVFLFPPKPKDTLMISRTPEVTCVVVDVSHEDPEVKFNWYVDGVEVHNAKTKPREEQYNSTYRVVSVLTVLHQDWLNGKEYKCKVSNKALPLPEEKTISKAKGQPREPQVYTLPPSREEMTKNQVSLTCLVKGFYPSDIAVEWESNGQPENNYKTTPPVLDSDGSFFLYSKLTVDKSRWQQGNVFSCSVLHEALHSHYTQKSLSLSPGK
light: DIQMTQSPSSLSASVGDTVTITCQANGYLNWYQQRRGKAPKLLIYDGSKLERGVPSRFSGRRWGQEYNLTINNLQPEDIATYFCQVYEFVVPGTRLDLKRTVAAPSVFIFPPSDEQLKSGTASVVCLLNNFYPREAKVQWKVDNALQSGNSQESVTEQDSKDSTYSLSSTLTLSKADYEKHKVYACEVTHQGLSSPVTKSFNRGEC
Turning to B8, the “ELISA A450” value was 0.08 A450 with BSA, 1.03 A450 in the test with gp120 Bal, 1.29 A450 with gp120 SHIV SF162 P3 and 1 A450 with gp120 CAAN.
